Measured values as given in patent US9176064B2, “Bisubstrate fluorescent probes for protein kinase CK2” (University of Tartu, priority 2012, dated 2015).
Where a SMILES comes first, the peptide text is derived from it. [ ]: non-standard residue; d: D form. The star is where a group is joined. X1 = O=C(CCCCCCCn1cnc2c(Br)c(Br)c(Br)c(Br)c21)*

What was measured:
Assay in all cases: Kinase panel residual activity
Format in all cases: biochemical
Conditions in all cases: compound at 1 micromolar
[1] = target: T1, EPH-B3 (Homo sapiens, UniProt P54753)
T1 sequence (P54753 34-998): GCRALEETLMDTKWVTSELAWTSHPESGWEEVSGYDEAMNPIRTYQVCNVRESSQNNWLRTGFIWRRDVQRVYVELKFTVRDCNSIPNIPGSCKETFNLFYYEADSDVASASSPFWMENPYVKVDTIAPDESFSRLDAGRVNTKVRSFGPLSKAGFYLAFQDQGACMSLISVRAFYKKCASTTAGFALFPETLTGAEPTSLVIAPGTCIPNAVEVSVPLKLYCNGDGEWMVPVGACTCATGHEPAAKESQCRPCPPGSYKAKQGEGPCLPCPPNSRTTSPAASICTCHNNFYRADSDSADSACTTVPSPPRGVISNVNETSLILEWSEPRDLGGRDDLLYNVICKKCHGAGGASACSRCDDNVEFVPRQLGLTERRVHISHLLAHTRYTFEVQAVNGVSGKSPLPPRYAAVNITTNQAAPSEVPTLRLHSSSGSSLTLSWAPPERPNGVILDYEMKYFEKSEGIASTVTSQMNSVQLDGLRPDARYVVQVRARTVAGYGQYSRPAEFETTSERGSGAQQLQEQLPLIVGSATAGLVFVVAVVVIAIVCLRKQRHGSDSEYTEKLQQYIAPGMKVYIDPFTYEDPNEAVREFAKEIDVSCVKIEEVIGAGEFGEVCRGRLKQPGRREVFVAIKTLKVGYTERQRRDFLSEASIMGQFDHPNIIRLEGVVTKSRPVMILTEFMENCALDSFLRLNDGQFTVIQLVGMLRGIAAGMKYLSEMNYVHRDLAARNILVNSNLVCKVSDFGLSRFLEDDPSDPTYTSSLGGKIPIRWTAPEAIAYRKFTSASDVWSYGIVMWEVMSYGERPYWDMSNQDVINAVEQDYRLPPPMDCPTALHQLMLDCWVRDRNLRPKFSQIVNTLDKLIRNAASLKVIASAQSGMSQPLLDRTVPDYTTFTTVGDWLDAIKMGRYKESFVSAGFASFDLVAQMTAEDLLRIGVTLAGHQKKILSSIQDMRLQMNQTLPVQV

[2] = target: TIE2 (Homo sapiens, UniProt Q02763)
[3] = target: RSK2 (Homo sapiens, UniProt P51812)
[4] = target: T2, EIF2AK3 (Homo sapiens, UniProt Q9NZJ5)
T2 sequence (Q9NZJ5 30-1116): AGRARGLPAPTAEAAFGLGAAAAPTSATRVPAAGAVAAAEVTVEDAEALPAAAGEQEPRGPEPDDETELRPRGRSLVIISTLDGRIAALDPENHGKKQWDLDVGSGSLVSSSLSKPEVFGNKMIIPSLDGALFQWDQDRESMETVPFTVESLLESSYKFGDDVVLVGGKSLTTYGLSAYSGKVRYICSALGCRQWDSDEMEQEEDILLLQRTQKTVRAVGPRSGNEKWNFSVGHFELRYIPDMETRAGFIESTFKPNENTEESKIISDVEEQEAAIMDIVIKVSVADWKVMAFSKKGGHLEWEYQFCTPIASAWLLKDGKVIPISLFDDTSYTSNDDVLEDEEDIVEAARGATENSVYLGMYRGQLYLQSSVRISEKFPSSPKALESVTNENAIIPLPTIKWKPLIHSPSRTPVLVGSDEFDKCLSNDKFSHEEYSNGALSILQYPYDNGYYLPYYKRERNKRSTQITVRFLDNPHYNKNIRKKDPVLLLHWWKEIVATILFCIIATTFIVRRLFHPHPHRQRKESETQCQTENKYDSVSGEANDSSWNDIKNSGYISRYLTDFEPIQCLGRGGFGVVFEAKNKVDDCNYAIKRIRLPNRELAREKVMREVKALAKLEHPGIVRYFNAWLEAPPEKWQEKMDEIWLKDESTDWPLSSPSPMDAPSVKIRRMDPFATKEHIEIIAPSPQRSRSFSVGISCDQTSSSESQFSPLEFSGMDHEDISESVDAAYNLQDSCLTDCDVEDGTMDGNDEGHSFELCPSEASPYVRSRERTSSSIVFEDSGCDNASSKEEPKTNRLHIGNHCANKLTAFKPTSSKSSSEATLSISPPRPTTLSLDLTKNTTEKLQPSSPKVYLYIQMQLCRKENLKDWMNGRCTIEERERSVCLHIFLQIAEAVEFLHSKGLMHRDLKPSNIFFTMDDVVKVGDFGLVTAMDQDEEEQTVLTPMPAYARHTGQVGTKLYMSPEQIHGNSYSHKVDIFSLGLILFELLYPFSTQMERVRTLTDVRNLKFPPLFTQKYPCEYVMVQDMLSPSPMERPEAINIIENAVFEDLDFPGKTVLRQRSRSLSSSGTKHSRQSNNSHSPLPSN

[5] = target: T3, MKK6 (Homo sapiens, UniProt P52564)
T3 sequence (P52564 1-334): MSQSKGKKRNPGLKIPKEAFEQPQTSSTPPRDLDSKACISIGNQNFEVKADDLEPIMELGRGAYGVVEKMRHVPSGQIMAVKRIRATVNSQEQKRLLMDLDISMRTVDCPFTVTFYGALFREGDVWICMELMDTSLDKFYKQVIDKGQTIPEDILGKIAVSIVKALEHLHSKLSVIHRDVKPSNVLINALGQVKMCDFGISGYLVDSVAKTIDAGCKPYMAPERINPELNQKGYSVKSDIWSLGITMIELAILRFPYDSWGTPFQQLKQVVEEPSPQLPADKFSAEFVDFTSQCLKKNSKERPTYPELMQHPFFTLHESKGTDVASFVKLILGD

[6] = target: CAMKKb (Homo sapiens, UniProt Q96RR4)
[7] = target: FGF-R1 (Homo sapiens, UniProt P11362)
Sequence of FGF-R1 (P11362 22-822, species assumed): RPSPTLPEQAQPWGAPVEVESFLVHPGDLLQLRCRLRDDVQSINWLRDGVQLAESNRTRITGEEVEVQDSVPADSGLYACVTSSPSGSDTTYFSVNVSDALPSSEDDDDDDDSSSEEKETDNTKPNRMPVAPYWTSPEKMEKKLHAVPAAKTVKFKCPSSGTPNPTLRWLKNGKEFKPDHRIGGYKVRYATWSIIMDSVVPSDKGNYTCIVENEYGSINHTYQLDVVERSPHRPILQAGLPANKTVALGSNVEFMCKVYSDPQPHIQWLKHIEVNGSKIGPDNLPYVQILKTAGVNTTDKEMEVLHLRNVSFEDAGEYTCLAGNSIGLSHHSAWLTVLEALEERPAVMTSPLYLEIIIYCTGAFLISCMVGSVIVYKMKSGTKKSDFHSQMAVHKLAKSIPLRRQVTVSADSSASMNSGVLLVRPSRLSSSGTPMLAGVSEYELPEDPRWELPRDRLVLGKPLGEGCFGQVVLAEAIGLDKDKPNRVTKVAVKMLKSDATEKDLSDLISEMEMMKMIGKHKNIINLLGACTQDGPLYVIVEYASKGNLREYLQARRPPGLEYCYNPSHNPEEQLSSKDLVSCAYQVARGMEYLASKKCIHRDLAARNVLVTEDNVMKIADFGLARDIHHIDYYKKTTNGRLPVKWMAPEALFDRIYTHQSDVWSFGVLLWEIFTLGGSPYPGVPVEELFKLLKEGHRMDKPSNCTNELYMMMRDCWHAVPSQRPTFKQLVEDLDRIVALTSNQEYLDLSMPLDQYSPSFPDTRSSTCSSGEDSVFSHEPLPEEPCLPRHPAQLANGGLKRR

Sequence of CAMKKb (Q96RR4 whole entry, species assumed): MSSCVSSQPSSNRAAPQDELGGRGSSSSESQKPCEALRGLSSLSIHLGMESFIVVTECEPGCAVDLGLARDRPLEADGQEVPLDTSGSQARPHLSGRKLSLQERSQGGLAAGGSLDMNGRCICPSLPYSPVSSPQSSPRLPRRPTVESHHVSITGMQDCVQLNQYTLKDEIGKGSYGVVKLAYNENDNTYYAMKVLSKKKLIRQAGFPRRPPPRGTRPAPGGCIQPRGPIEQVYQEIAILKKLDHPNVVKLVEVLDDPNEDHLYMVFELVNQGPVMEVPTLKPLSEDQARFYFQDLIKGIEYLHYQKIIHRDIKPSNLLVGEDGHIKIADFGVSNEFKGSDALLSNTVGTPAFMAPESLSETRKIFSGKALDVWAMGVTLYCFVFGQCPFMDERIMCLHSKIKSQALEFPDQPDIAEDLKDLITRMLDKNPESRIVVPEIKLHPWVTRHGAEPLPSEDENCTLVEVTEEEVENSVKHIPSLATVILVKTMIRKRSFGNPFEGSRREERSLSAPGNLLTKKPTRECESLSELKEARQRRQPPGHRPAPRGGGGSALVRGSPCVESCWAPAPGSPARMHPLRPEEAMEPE
Sequence of TIE2 (Q02763 23-1124, species assumed): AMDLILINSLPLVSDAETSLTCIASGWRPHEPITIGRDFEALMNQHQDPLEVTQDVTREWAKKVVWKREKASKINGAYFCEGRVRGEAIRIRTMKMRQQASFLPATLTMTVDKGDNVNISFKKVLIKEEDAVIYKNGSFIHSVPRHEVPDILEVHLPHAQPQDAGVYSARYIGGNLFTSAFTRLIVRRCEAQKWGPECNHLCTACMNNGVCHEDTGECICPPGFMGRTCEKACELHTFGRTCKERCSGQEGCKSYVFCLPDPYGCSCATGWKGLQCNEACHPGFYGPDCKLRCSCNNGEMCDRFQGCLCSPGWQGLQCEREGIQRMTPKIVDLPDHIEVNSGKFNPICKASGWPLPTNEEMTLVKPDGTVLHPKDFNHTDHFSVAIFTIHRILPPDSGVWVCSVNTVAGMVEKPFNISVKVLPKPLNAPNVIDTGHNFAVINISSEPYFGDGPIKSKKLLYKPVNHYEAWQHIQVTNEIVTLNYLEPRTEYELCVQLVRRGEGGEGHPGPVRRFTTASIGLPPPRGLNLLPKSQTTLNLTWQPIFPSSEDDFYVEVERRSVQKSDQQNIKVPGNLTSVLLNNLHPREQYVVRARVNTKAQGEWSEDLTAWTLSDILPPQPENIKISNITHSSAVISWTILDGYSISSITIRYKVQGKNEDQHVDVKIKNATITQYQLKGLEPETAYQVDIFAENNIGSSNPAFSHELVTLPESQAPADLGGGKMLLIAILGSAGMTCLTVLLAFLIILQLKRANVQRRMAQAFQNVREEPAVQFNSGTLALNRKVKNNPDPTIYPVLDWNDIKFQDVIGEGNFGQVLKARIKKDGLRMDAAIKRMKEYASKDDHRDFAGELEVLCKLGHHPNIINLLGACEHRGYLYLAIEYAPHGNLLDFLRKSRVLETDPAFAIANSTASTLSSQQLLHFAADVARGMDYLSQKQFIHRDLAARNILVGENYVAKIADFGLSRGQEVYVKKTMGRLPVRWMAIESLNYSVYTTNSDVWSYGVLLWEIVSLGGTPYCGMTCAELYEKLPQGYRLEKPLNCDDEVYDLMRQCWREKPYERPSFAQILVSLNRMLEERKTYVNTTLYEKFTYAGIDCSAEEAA
Sequence of RSK2 (P51812 whole entry, species assumed): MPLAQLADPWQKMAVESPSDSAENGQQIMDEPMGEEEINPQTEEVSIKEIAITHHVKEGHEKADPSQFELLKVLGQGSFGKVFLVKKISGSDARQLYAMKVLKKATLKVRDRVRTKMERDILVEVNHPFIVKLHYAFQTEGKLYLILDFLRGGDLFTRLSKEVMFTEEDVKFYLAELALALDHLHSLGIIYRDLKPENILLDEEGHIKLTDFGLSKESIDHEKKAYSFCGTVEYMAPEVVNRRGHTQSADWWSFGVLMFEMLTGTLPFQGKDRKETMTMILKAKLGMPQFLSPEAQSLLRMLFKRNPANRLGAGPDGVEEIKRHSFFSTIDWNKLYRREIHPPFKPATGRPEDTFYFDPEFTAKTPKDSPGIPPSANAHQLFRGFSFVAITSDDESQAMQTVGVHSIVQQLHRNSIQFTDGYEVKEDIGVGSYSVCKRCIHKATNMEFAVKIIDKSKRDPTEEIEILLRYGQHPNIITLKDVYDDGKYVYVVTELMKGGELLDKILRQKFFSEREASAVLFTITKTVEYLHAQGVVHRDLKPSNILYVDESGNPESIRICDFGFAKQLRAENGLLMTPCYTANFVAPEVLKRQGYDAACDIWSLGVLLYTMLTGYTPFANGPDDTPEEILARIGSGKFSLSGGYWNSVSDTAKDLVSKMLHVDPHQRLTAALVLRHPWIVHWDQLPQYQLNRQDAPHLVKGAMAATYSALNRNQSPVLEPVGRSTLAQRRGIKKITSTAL

NCCCC[C@H](NC(=O)[C@H](CC(=O)O)NC(=O)[C@H](CC(=O)O)NC(=O)[C@H](CC(=O)O)NC(=O)[C@H](CC(=O)O)NC(=O)[C@H](CC(=O)O)NC(=O)[C@@H](CC(=O)O)NC(=O)CCCCCCCn1cnc2c(Br)c(Br)c(Br)c(Br)c21)C(=O)O [TBBI-OcA-(D-Asp)-(L-Asp)5-(L-Lys)-OH] (X1-[dD]DDDDDK-OH)
remaining activity at 1 µM [1]: 98%
remaining activity at 1 µM [2]: 105%
remaining activity at 1 µM [3]: 70%
remaining activity at 1 µM [4]: 71%
remaining activity at 1 µM [5]: 82%
remaining activity at 1 µM [6]: 91%
remaining activity at 1 µM [7]: 110%
